Laboratory results as given in PMC4431734, “Characterization of a Single-Stranded DNA-Binding-Like Protein from Nanoarchaeum equitans—A Nucleic Acid Binding Protein with Broad Substrate Specificity”.

Assays:
EcoSSB = EcoSSB (Escherichia coli, UniProt P0AGE0 1-178); assay: SPR; kon 3.45e4 1/Ms; koff 1.85e-4 1/s; EMSA: 20 mM Tris-HCl pH 7.5, 100 mM NaCl, 1 mM EDTA, 25 C, 10 min; fluorescence: 20 mM Tris-HCl pH 7.5, 1 mM EDTA, 2/100/500 mM NaCl, 25 C; SPR: 10 mM Hepes pH; conditions: protein: recombinant; chain copies: 4; label: 3' biotin
EcoSSB, sequence (P0AGE0 whole entry): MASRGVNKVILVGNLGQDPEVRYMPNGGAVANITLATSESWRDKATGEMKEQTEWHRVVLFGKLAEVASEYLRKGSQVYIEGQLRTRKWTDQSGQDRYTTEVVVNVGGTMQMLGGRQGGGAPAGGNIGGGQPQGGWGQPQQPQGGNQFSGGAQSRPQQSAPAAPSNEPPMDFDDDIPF

NeqSSB-like protein [1] = biological target: T1, NeqSSB-like protein (Nanoarchaeum equitans Kin4-M, UniProt Q74MP9 2-243); assay: SPR; kon 7.91e3 1/Ms; koff 2.39e-2 1/s; EMSA: 20 mM Tris-HCl pH 7.5, 100 mM NaCl, 1 mM EDTA, 25 C, 10 min; fluorescence: 20 mM Tris-HCl pH 7.5, 1 mM EDTA, 2/100/500 mM NaCl, 25 C; SPR: 10 mM Hepes pH; conditions: protein: recombinant; tags: N-terminal His tag with TEV site, removed by TEV; label: 3' biotin
T1 sequence: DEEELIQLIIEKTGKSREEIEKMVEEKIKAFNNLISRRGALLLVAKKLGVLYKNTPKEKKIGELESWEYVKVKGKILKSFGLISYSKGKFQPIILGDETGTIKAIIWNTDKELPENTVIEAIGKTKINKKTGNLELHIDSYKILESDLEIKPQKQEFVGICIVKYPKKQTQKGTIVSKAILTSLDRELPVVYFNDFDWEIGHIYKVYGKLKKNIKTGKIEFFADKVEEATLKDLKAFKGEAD

NeqSSB-like protein [2] = biological target: T1, NeqSSB-like protein; assay: SPR; kon 8.30e3 1/Ms; koff 4.89e-2 1/s; EMSA: 20 mM Tris-HCl pH 7.5, 100 mM NaCl, 1 mM EDTA, 25 C, 10 min; fluorescence: 20 mM Tris-HCl pH 7.5, 1 mM EDTA, 2/100/500 mM NaCl, 25 C; SPR: 10 mM Hepes pH; conditions: protein: recombinant; tags: N-terminal His tag with TEV site, removed by TEV; label: 3' biotin on strand 1; blunt
NeqSSB-like protein [3] = biological target: T1, NeqSSB-like protein; assay: EMSA; 10 pmol DNA; EMSA: 20 mM Tris-HCl pH 7.5, 100 mM NaCl, 1 mM EDTA, 25 C, 10 min; fluorescence: 20 mM Tris-HCl pH 7.5, 1 mM EDTA, 2/100/500 mM NaCl, 25 C; SPR: 10 mM Hepes pH; conditions: protein: recombinant; tags: N-terminal His tag with TEV site, removed by TEV; label: 5' fluorescein
NeqSSB-like protein [4] = biological target: T1, NeqSSB-like protein; assay: EMSA; 10 pmol DNA; smeary shift; EMSA: 20 mM Tris-HCl pH 7.5, 100 mM NaCl, 1 mM EDTA, 25 C, 10 min; fluorescence: 20 mM Tris-HCl pH 7.5, 1 mM EDTA, 2/100/500 mM NaCl, 25 C; SPR: 10 mM Hepes pH; conditions: protein: recombinant; tags: N-terminal His tag with TEV site, removed by TEV; label: 5' fluorescein
NeqSSB-like protein [5] = biological target: T1, NeqSSB-like protein; assay: competition EMSA; mixed with 100 bp dsDNA; ssDNA bound preferentially at low protein; EMSA: 20 mM Tris-HCl pH 7.5, 100 mM NaCl, 1 mM EDTA, 25 C, 10 min; fluorescence: 20 mM Tris-HCl pH 7.5, 1 mM EDTA, 2/100/500 mM NaCl, 25 C; SPR: 10 mM Hepes pH; conditions: protein: recombinant; tags: N-terminal His tag with TEV site, removed by TEV; label: 5' fluorescein

B1: ssDNA 60-mer (ssDNA)
DNA: AATTCTGGGTGTGTGGGTGTGTGGGTGTGTGGGTGTGGTCAAGTTGACTACGTATACATC
Question: Which Kd (EcoSSB) does the source give for B1 here?
Answer: 0.00536 µM

Question: And the Kd (NeqSSB-like protein [1])?
Answer: 2.66 µM

B2: dsDNA 60-mer (dsDNA)
DNA 1: AATTCTGGGTGTGTGGGTGTGTGGGTGTGTGGGTGTGGTCAAGTTGACTACGTATACATC
DNA 2: GATGTATACGTAGTCAACTTGACCACACCCACACACCCACACACCCACACACCCAGAATT
Question: With B2 as the binder, how does the Kd (NeqSSB-like protein [2]) read?
Answer: 5.26 µM

B3: (dT)120 (ssDNA)
DNA: TTTTTTTTTTTTTTTTTTTTTTTTTTTTTTTTTTTTTTTTTTTTTTTTTTTTTTTTTTTTTTTTTTTTTTTTTTTTTTTTTTTTTTTTTTTTTTTTTTTTTTTTTTTTTTTTTTTTTTTT
Question: Does B3 bind (NeqSSB-like protein [3])?
Answer: binds

Question: Does TTTTTTTTTTTTTTTTTTTTTTTTTTTTTTTTTTT (ssDNA) [(dT)35] bind (NeqSSB-like protein [4])?
Answer: binds

B4: (dT)76 (ssDNA)
DNA: TTTTTTTTTTTTTTTTTTTTTTTTTTTTTTTTTTTTTTTTTTTTTTTTTTTTTTTTTTTTTTTTTTTTTTTTTTTT
Question: Does B4 bind (NeqSSB-like protein [5])?
Answer: binds
